Tested on: Escherichia coli TOP10
Test: shrunken log2 fold change of peptide-encoding DNA abundance (4.5 h post-induction vs induction); higher = less antimicrobial activity (less host growth inhibition)
Conditions: time post-induction: 4.5 h; library: site-saturation at positions 5, 18, 19, 20
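Note: peptides expressed intracellularly from a pBAD plasmid library in pooled LB shake-flask culture, induced with 0.3% L-arabinose, DNA abundance read by NGS, three biological replicates, DESeq2 with apeglm shrinkage.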

Row | Sequence | shrunken log2 fold change
1 | RRIRHRPPRLPRPRPRPVLMPRP | -0.381
2 | RRIRHRPPRLPRPRPRPAAVPRP | 0.0752
3 | RRIRPRPPRLPRPRPRPGIPPRP | -0.157
4 | RRIRCRPPRLPRPRPRPVTRPRP | 0.197
5 | RRIRIRPPRLPRPRPRPVSRPRP | 0.0446
6 | RRIRDRPPRLPRPRPRPPAIPRP | 0.00372
7 | RRIRKRPPRLPRPRPRPVQDPRP | 0.295
8 | RRIRSRPPRLPRPRPRPCCQPRP | 0.0545
9 | RRIRTRPPRLPRPRPRPMCRPRP | -0.0404
10 | RRIRYRPPRLPRPRPRPPFYPRP | -0.789
11 | RRIRRRPPRLPRPRPRPAWMPRP | 0.24
12 | RRIRNRPPRLPRPRPRPIYVPRP | -0.892
13 | RRIRARPPRLPRPRPRPLSQPRP | 0.263
14 | RRIRKRPPRLPRPRPRPIKDPRP | -0.00059
15 | RRIRLRPPRLPRPRPRPLRTPRP | 1.18
16 | RRIRDRPPRLPRPRPRPENLPRP | 0.0863
17 | RRIRSRPPRLPRPRPRPATMPRP | 0.00669
18 | RRIRPRPPRLPRPRPRPGYKPRP | -0.141
19 | RRIRDRPPRLPRPRPRPYTRPRP | -0.0984
20 | RRIRSRPPRLPRPRPRPEYTPRP | -0.0105
21 | RRIRLRPPRLPRPRPRPEYIPRP | -0.312
22 | RRIRWRPPRLPRPRPRPDWHPRP | -0.0337
23 | RRIRERPPRLPRPRPRPHPCPRP | -0.0414

Row | Sequence | shrunken log2 fold change
24 | RRIRMRPPRLPRPRPRPYLEPRP | -0.0515
25 | RRIRERPPRLPRPRPRPCKQPRP | -0.086
26 | RRIRMRPPRLPRPRPRPFIVPRP | -0.414
27 | RRIRERPPRLPRPRPRPALIPRP | 0.129
28 | RRIRTRPPRLPRPRPRPSIWPRP | 0.112
29 | RRIRIRPPRLPRPRPRPWRMPRP | -0.473
30 | RRIRRRPPRLPRPRPRPAMQPRP | 0.423
31 | RRIRVRPPRLPRPRPRPWHTPRP | -0.33
32 | RRIRERPPRLPRPRPRPGEDPRP | -0.0649
33 | RRIRPRPPRLPRPRPRPWNIPRP | -0.00871
34 | RRIRHRPPRLPRPRPRPDPVPRP | 0.126
35 | RRIRSRPPRLPRPRPRPAGFPRP | 0.262
36 | RRIRNRPPRLPRPRPRPPVMPRP | 0.139
37 | RRIRQRPPRLPRPRPRPGKLPRP | -0.0396
38 | RRIRCRPPRLPRPRPRPLHPPRP | 0.199
39 | RRIRFRPPRLPRPRPRPIQLPRP | -0.336
40 | RRIRVRPPRLPRPRPRPFWEPRP | -0.0891
41 | RRIRSRPPRLPRPRPRPDKNPRP | -0.105
42 | RRIRDRPPRLPRPRPRPAVHPRP | 0.16
43 | RRIRTRPPRLPRPRPRPAMMPRP | -0.109
44 | RRIRARPPRLPRPRPRPRGAPRP | 0.961
45 | RRIRWRPPRLPRPRPRPGTFPRP | -0.0686
46 | RRIRIRPPRLPRPRPRPGASPRP | 0.0546

Row | Sequence | shrunken log2 fold change
47 | RRIRMRPPRLPRPRPRPTEIPRP | -0.0223
48 | RRIRDRPPRLPRPRPRPHPSPRP | 0.0703
49 | RRIRMRPPRLPRPRPRPDWYPRP | -0.135
50 | RRIRPRPPRLPRPRPRPVFMPRP | -0.185
51 | RRIRRRPPRLPRPRPRPGIFPRP | -0.174
52 | RRIRCRPPRLPRPRPRPGHRPRP | -0.0213
53 | RRIRNRPPRLPRPRPRPTAGPRP | 0.0608
54 | RRIRCRPPRLPRPRPRPQSSPRP | -0.103
55 | RRIRGRPPRLPRPRPRPNWSPRP | 0.131
56 | RRIRYRPPRLPRPRPRPECLPRP | -0.171
57 | RRIRRRPPRLPRPRPRPIQCPRP | 0.00305
58 | RRIRTRPPRLPRPRPRPIFQPRP | -0.192
59 | RRIRNRPPRLPRPRPRPQMVPRP | -0.00674
60 | RRIRIRPPRLPRPRPRPWWLPRP | -0.0152
61 | RRIRHRPPRLPRPRPRPKRTPRP | 0.00166
62 | RRIRLRPPRLPRPRPRPIHYPRP | -0.186
63 | RRIRARPPRLPRPRPRPVSCPRP | 0.473
64 | RRIRWRPPRLPRPRPRPQGCPRP | 0.0267
65 | RRIRVRPPRLPRPRPRPERIPRP | -0.00978
66 | RRIRLRPPRLPRPRPRPNQQPRP | 0.0291
67 | RRIRSRPPRLPRPRPRPQYVPRP | -0.22
68 | RRIRMRPPRLPRPRPRPSYGPRP | -0.0196
69 | RRIRSRPPRLPRPRPRPKAMPRP | -0.148

Row | Sequence | shrunken log2 fold change
70 | RRIRFRPPRLPRPRPRPYNYPRP | -1.03
71 | RRIRSRPPRLPRPRPRPCACPRP | -0.0721
72 | RRIRFRPPRLPRPRPRPDYPPRP | -0.111
73 | RRIRIRPPRLPRPRPRPHPSPRP | -0.488
74 | RRIRPRPPRLPRPRPRPECHPRP | -0.0419
75 | RRIRHRPPRLPRPRPRPSQVPRP | 0.176
76 | RRIRLRPPRLPRPRPRPGAQPRP | 0.0336
77 | RRIRCRPPRLPRPRPRPESWPRP | 0.598
78 | RRIRMRPPRLPRPRPRPRRDPRP | 0.651
79 | RRIRPRPPRLPRPRPRPMPGPRP | -0.0627
80 | RRIRGRPPRLPRPRPRPTGHPRP | 0.448
81 | RRIRIRPPRLPRPRPRPALQPRP | -0.011
82 | RRIRYRPPRLPRPRPRPSNRPRP | -0.134
83 | RRIRARPPRLPRPRPRPYAMPRP | 0.0392
84 | RRIRARPPRLPRPRPRPSHWPRP | -0.175
85 | RRIRTRPPRLPRPRPRPVLRPRP | 0.11
86 | RRIRWRPPRLPRPRPRPEEKPRP | 0.584
87 | RRIRHRPPRLPRPRPRPEAAPRP | 0.83
88 | RRIRRRPPRLPRPRPRPEQRPRP | 0.272
89 | RRIRDRPPRLPRPRPRPMFIPRP | -0.0363
90 | RRIRYRPPRLPRPRPRPQVKPRP | -0.318
91 | RRIRTRPPRLPRPRPRPMPTPRP | 0.0982

From the supplement of paper PMC9112550, “Optimization of the antimicrobial peptide Bac7 by deep mutational scanning” (BMC Biology, 2022)
